# T1: factor XII (Homo sapiens, UniProt P00748)
# T1 sequence (P00748 20-615): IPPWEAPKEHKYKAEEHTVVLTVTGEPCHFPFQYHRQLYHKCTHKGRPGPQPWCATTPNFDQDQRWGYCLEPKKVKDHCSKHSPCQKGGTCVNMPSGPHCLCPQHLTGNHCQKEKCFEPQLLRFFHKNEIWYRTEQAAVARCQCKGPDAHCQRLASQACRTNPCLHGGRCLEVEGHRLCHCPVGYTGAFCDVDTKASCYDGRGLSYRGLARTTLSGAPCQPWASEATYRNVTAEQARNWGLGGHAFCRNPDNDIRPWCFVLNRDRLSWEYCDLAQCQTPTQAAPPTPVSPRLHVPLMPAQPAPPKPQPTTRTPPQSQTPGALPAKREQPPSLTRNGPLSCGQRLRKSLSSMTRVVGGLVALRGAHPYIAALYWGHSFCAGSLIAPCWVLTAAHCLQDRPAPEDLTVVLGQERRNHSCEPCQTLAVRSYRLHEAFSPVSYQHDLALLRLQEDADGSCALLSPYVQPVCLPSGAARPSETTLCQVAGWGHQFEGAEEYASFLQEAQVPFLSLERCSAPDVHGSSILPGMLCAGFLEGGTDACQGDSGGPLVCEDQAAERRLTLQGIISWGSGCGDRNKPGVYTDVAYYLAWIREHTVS
# Tests used:
# [1] = target: T2, glycated haemoglobin (Hb-AGE) (Homo sapiens, UniProt P68871+P69905); assay: ELISA binding of recombinant human BiP to Hb-AGE, with or without tPA or K2P-tPA; conditions: cell culture supernatant of HEK 293E cells
# T2 construct: purchased Sigma-Aldrich H7379
# From the text: Absorbance was read at 450 nm.
# The threefold diluted cell supernatants were applied to the ELISA plate in duplicates and BiP binding was subsequently measured as described above. Coat efficiency was checked with specific anti-AGE antibody, anti-albumin antibody and anti-Hb antibody.
# [2] = target: T3, glycated albumin (BSA-AGE) (Bos taurus, UniProt P02769); assay: ELISA binding of recombinant human BiP to BSA-AGE, with or without tPA or K2P-tPA; parameters: species or system bovine; conditions: cell culture supernatant of HEK 293E cells
# T3 construct: purchased Sigma-Aldrich A-7906
# Experimental: Proteins at 5 μg/ml were coated for 1 h at room temperature with agitation, in Microlon high-binding ELISA plates (Greiner) in 50 mM NaHCO3 pH 9.6. Buffer was coated as negative control. A twofold dilutions series of cell culture supernatant of HEK 293E cells over-expressing BiP was also coated to the plate for anti-FLAG-tag antibody control purposes. Plates were washed and blocked with ½*Blocking reagent (Roche). Undiluted cell culture supernatant enriched with 0.1% Tween20 was added to the wells with immobilized protein ligands and incubated for 1 h at room temperature with agitation. Medium was discarded and the plate was washed with PBS with 0.1% v/v Tween20. Mouse monoclonal anti-FLAG-tag antibody (Sigma, A8592, anti-FLAG M2PO conjugate) was diluted 1000× in PBS/0.1% Tween20 and added to all wells, including those that are coated with cell culture supernatant. After a 1 h incubation at room temperature with agitation and after washing, wells were overlayed with 3000× diluted RAMPO (DAKOCytomation) in PBS/0.1% Tween20. […] Absorbance was read at 450 nm.
# Hb-AGE, Hb, BSA-AGE, BSA and buffer were coated. The threefold diluted cell supernatants were applied to the ELISA plate in duplicates and BiP binding was subsequently measured as described above. […]
# tPA [3] = target: T4, tPA (Homo sapiens, UniProt P00750); assay: ELISA binding of β2GPI to immobilized tPA; conditions: tPA immobilized
# Experimental: (§1) Binding of β2GPI was assessed with monoclonal antibody 2B2^17.
# [4] = system: anti-β2GPI auto-antibodies from antiphospholipid syndrome patients; assay: Interference with binding of anti-β2GPI autoantibodies to immobilized β2GPI; parameters: species or system human; conditions: concentration series of β2GPI in solution
# Experimental: β2GPI by recombinant β2GPI and not by plasma derived β2GPI When plasma derived β2GPI is coated onto hydrophilic ELISA plates, anti-β2GPI auto-antibodies isolated from plasma of antiphospholipid syndrome autoimmune patients can bind^18. To study the influence of coincubations of the coated β2GPI with the antibodies together with plasma β2GPI or recombinant β2GPI, concentration series of β2GPI were added to the patient antibodies. Subsequently, binding of the antibodies to coated β2GPI was determined.
# tPA [5] = target: T4, tPA; assay: Plasminogen activation assay (tPA-mediated conversion of Plg to plasmin); format: biochemical; parameters: purchased Boehringer-Ingelheim Actilyse; conditions: 100 μg ml^−1 protein or peptide, 400 pM tPA, substrate S-2251
# Experimental: Plasmin (Plm) activity was assayed as described^4. Peptides and proteins that were tested for their stimulatory ability were used at 100 μg ml^−1, unless stated otherwise. […] Chromogenic substrate S-2251 (Chromogenix, Instrumentation Laboratory SpA, Milano, Italy) was used to measure Pls activity.
# Purification of β2-glycoprotein I (β2GPI) was performed according to established methods^15,16. Recombinant human β2GPI was made using insect cells and purified as described^15. Plasma derived β2GPI as used in a factor XII ELISA, the Plg-activation assay and in the anti-phospholipid syndrome antibody ELISA (see below), was purified from fresh human plasma as described^16. […]
# Solutions of fibrin peptide FP6, NH2—IDIKIR-COOH (Peptide facility, Dutch Cancer Institute, Amsterdam, the Netherlands) were prepared in various ways. […] Separate samples were prepared similarly and analyzed by electron spray ionization mass spectrometry (ESI-MS) to obtain information on the distribution of the peptide over putatively present oligomers (Dr C. Versluis, Department of Biomolecular Mass Spectrometry, Bijvoet Center for Biomolecular Research, Utrecht University, Utrecht, The Netherlands). […] Micrographs were recorded at 80 kV, at suitable magnifications on a JEM-1200EX electron microscope (JEOL, Japan).
# factor XII = target: T1, factor XII; assay: ELISA binding of β2GPI to immobilized factor XII; parameters: human factor XII from plasma (Calbiochem); purchased Calbiochem; host or cells: human plasma; conditions: factor XII immobilized
# Experimental: as §1
# T4 sequence (P00750 36-562): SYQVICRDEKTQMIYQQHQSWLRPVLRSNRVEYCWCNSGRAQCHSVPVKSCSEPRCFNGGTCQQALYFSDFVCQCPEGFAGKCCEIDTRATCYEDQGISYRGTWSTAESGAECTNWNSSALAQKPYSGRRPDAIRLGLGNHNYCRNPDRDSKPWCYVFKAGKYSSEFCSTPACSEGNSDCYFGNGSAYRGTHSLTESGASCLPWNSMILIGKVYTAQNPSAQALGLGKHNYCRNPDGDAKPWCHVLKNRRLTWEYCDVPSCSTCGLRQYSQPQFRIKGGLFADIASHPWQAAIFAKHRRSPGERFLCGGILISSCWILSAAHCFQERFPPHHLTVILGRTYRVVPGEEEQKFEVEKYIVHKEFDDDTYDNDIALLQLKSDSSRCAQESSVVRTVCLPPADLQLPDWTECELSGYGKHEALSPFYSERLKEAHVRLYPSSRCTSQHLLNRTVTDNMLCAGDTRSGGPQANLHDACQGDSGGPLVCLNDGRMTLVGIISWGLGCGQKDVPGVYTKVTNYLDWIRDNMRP
# T2 sequence (P69905 2-142 limits assumed): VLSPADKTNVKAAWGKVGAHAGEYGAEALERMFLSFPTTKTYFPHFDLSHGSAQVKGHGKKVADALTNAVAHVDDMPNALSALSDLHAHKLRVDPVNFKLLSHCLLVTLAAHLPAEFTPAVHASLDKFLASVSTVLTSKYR
# T2 sequence (P68871 2-147 limits assumed): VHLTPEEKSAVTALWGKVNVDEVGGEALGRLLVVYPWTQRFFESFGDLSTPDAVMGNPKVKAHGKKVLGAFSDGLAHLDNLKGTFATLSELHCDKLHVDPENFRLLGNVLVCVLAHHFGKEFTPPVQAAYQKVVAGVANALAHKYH
# T3 sequence (P02769 25-607): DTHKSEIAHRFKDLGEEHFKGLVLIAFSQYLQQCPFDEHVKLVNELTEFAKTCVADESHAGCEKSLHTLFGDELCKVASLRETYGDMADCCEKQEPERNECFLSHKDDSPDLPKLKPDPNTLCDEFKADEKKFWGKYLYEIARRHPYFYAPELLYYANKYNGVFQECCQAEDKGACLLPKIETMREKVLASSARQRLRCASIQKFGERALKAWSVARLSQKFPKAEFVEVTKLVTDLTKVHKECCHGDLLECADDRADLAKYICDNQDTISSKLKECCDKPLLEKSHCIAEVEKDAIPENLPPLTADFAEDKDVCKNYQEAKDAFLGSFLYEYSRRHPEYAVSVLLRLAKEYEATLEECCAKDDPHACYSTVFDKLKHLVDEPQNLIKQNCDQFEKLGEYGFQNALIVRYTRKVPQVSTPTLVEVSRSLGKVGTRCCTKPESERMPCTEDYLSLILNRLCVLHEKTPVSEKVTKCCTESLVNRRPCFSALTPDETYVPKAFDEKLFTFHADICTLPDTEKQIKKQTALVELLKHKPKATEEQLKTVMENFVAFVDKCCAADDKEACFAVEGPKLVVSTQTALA
kD of binding to tPA (tPA [3]) [µg/mL],kD of binding to factor XII (factor XII) [µg/mL],Molecule,BiP binding to Hb-AGE and native haemoglobin [1],BiP binding to BSA-AGE and native BSA [2],inhibition of binding of anti-β2GPI auto-antibodies to immobilized β2GPI [4],stimulation of tPA-mediated conversion of Plg to plasmin (tPA [5])
,,"BiP: recombinant human BiP with carboxy-terminal linker, FLAG-tag and His-tag, expressed in HEK 293E cells",binds to glycated haemoglobin (Hb-AGE) and to a lesser extent to coated native haemoglobin,binds to glycated albumin (BSA-AGE) and not to native BSA,,
2.3,0.9,"Recombinant β2GPI: recombinant human β2-glycoprotein I made using insect cells (protein, UniProt P02749 20-345, looked up, recombinant, insect cells) Beta-2-glycoprotein 1: GRTCPKPDDLPFSTVVPLKTFYEPGEEITYSCKPGYVSRGGMRKFICPLTGLWPINTLKCTPRVCPFAGILENGAVRYTTFEYPNTISFSCNTGFYLNGADSAKCTEEGKWSPELPVCAPIICPPPSIPTFATLRVYKPSAGNNSLYRDTAVFECLPQHAMFGNDTITCTTHGNWTKLPECREVKCPFPSRPDNGFVNYPAKPTLYYKDKATFGCHDGYSLDGPEEIECTKLGNWSAMPSCKASCKVPVKKATVVYQGERVKIQEKFKNGMLHGDKVSFFCKNKEKKCSYTEDAQCIDGTIEVPKCFKEHSSLAFWKTDASDVKPC",,,efficiently inhibits binding of anti-β2GPI auto-antibodies to immobilized β2GPI,stimulate tPA-mediated conversion of Plg to plasmin
